Reference: patent US20020151477, “Nuclear receptor coactivator” (published 2002)

Assays:
[1] = target: T1, TRβ/RXRα heterodimer (Homo sapiens (TRβ) / Rattus norvegicus …, UniProt P10828;Q05343 P10828:1-461,Q05343:1-467); assay: EMSA; oligomeric complex with GST-RAP250; details: tags: pCMVhTRβ and pBKCMVrRXRα, rabbit reticulocyte lysate TNT; label: 32P (dCTP)
T1 sequence 1: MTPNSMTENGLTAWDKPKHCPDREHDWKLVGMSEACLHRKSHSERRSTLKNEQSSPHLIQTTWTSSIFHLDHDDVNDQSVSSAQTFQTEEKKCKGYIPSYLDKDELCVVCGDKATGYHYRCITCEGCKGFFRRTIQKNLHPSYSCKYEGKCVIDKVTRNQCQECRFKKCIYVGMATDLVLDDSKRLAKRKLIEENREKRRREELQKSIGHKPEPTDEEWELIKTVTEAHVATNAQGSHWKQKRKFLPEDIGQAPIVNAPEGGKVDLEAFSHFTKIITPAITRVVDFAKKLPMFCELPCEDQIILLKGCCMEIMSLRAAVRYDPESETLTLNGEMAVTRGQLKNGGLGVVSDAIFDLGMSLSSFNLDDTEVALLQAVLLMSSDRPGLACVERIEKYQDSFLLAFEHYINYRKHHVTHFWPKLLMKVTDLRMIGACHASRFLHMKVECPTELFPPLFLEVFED
T1 sequence 2: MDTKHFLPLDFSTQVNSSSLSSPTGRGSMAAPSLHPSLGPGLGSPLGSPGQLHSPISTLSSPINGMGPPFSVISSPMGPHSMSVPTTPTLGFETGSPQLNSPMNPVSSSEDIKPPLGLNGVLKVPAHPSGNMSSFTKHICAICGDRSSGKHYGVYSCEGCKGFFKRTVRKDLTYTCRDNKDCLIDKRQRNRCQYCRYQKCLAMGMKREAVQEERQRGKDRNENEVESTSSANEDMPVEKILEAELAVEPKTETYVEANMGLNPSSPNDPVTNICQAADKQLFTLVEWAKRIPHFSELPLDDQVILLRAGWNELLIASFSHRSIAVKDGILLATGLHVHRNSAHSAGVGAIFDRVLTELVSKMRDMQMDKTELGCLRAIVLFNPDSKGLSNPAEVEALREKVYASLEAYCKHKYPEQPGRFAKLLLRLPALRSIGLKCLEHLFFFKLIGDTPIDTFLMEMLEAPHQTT

[2] = target: T2, TRα/RXRα + GST-RAP250 (818-931) complex (Homo sapiens (TRα) / Rattus norvegicus …, UniProt P10827-2;Q05343;Q9JL19 P10827-2:1-410,Q05343:1-467,Q9JL19:818-931); assay: EMSA; weak supershift without ligand, pronounced with T3 and/or 9-cis RA; details: tags: GST-RAP250 purified from E. coli; label: 32P (dCTP)
T2 chain 1: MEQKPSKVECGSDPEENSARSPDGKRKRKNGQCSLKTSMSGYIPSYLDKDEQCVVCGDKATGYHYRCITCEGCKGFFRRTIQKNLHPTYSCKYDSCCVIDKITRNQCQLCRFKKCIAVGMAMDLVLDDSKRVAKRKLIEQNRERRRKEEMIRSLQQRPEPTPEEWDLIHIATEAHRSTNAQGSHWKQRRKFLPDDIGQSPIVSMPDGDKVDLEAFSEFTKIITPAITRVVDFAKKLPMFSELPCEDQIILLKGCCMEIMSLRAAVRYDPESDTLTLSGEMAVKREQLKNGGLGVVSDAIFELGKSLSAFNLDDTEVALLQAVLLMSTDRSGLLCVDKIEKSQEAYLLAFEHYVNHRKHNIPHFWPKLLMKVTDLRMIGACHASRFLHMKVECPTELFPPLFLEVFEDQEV
T2 chain 2: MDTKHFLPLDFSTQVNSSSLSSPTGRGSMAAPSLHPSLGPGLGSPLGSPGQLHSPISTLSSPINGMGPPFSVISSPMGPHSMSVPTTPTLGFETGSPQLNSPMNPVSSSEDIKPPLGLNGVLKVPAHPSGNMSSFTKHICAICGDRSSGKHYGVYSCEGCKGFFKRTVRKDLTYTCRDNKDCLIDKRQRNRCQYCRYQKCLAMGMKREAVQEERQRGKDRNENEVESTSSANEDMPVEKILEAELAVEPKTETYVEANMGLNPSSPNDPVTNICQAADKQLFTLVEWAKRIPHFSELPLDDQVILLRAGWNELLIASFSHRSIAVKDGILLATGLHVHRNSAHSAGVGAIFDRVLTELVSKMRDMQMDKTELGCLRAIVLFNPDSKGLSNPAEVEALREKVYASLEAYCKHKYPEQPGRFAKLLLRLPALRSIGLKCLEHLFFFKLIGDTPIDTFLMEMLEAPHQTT
T2 chain 3: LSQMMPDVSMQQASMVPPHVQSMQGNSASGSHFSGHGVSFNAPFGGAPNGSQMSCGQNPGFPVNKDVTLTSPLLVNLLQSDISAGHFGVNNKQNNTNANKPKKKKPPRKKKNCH

[3] = target: T3, TRα/RXRα heterodimer (Homo sapiens (TRα) / Rattus norvegicus …, UniProt P10827-2;Q05343 P10827-2:1-410,Q05343:1-467); assay: EMSA; with and without T3 / 9-cis RA; GST alone does not interact with the complex; on ice; details: tags: pCMVhTRα and pBKCMVrRXRα, rabbit reticulocyte lysate TNT; label: 32P (dCTP)
T3 sequence 1: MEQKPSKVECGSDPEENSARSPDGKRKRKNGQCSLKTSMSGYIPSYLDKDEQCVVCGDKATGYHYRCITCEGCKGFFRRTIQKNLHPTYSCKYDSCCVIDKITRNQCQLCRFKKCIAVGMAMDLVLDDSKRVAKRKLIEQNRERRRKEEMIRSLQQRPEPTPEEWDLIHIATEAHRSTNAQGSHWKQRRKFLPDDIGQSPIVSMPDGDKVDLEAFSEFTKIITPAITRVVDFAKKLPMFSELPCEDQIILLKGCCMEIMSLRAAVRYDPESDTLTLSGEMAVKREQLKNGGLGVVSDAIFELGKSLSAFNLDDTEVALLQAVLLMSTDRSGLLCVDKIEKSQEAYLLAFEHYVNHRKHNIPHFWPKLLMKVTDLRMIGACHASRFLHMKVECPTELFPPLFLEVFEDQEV
T3 sequence 2: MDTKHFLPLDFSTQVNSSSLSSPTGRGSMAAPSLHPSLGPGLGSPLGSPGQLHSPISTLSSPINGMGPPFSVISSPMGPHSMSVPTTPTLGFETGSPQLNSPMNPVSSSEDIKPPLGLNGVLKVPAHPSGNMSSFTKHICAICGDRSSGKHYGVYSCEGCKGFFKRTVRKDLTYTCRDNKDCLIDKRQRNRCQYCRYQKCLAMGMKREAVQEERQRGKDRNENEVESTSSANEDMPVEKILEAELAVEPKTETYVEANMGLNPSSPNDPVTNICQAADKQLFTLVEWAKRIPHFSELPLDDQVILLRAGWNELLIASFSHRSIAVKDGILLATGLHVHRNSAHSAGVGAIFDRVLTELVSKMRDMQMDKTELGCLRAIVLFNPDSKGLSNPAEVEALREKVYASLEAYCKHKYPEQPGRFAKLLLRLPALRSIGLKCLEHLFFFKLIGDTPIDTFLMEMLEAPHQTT

Measured: binding result

B1: DR4-TRE (dsDNA)
DNA 1: TCGATCAGGTCATTTCAGGTCAGAG
DNA 2: CTCTGACCTGAAATGACCTGATCGA
binds: all assays above
